From publication PMC4873976, “Structural basis for haem piracy from host haemopexin by Haemophilus influenzae” (Nature Communications, 2016)
Where a chain is given by its changes, count along the chain named.

How the values were obtained:
[1] = target: cysteine-less variant of HxuA^DEL (Haemophilus influenzae) (UniProt P44602); assay: ITC; haemopexin or its fragments (~100 μM) in the syringe, HxuA (~10 μM) in the cell; 20 mM Na-phosphate pH 7.0, 25 °C; single-site model; apparent Ka
[2] = target: T1, HxuA (cysteine-less variant, Cys855 and Cys861 replaced by serines; referred to as HxuA throughout) (Haemophilus influenzae, UniProt P44602 22-905, Cys855 replaced by serine | Cys861 replaced by serine); assay: ITC; haemopexin or its fragment (~100 uM) in the syringe, HxuA or mutant (~10 uM) in the cell; 25 °C; 20 mM Na-phosphate pH 7.0; single-site model; apparent Ka; mean of one to three experiments; details: both partners purified
T1 construct: also called WT; HxuAWT; source: E. coli BL21 with a pBAD24 derivative harbouring the hxuCBA operon; purified from the culture supernatant (ammonium sulfate, SEC, monoQ)
T1 sequence: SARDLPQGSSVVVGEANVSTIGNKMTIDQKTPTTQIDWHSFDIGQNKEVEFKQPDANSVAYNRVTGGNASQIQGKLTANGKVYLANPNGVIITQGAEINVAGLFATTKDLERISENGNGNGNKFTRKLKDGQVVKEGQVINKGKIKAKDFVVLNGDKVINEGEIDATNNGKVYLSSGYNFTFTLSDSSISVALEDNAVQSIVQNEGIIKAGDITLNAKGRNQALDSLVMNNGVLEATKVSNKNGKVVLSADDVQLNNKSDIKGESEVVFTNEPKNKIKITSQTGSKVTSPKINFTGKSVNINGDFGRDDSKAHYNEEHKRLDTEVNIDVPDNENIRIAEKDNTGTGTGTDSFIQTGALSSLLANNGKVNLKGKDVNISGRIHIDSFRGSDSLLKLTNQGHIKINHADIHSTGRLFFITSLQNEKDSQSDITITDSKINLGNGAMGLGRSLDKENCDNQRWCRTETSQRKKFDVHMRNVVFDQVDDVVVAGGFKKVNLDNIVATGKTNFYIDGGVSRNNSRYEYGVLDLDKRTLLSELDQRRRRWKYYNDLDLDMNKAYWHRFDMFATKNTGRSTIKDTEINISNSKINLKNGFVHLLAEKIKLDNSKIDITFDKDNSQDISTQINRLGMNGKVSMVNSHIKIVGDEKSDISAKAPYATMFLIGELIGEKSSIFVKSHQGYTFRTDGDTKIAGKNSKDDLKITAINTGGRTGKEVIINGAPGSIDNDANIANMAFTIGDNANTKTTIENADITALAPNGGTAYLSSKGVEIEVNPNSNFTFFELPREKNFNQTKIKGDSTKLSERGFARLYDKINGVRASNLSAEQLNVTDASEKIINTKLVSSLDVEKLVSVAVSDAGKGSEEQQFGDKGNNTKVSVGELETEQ

[3] = target: T2, HxuA, cysteine-less variant (cysteines 855 and 861 replaced by serines; referred to as HxuA throughout) (Haemophilus influenzae, UniProt P44602 22-905, cysteine at position 855 replaced by serine | cysteine at position 861 replaced …); assay: ITC; haemopexin or its fragments (~100 μM) in the syringe, HxuA (~10 μM) in the cell; 20 mM Na-phosphate pH 7.0, 25 °C; single-site model; apparent Ka; details: both partners purified
T2 construct: HxuA, haem-haemopexin utilisation protein A (TpsA cargo protein) of Haemophilus influenzae, called full-length, 884 residues, Ser1 to Gln884; Measured mass 96,467.6094 (theoretical 96,469.6926); also called HxuAdm; dm variant; source: E. coli BL21, pBAD24 derivative with the hxuCBA operon; purified from the culture supernatant (ammonium sulfate, SEC, monoQ)
T2 sequence: T1 sequence

[4] = target: T3, HxuA^DEL (M loop deletion), cysteine-less (dm) variant (Haemophilus influenzae, UniProt P44602 22-905, additional Pro codon replacing the initial 712-728 sequence | Cys855 replaced …); assay: ITC; haemopexin or its fragment (~100 uM) in the syringe, HxuA or mutant (~10 uM) in the cell; 25 °C; 20 mM Na-phosphate pH 7.0; single-site model; apparent Ka; mean of one to three experiments; details: both partners purified
T3 construct: source: E. coli BL21 with a pBAD24 derivative harbouring the hxuCBA operon; purified from the culture supernatant (same protocol as HxuA)
T3 sequence: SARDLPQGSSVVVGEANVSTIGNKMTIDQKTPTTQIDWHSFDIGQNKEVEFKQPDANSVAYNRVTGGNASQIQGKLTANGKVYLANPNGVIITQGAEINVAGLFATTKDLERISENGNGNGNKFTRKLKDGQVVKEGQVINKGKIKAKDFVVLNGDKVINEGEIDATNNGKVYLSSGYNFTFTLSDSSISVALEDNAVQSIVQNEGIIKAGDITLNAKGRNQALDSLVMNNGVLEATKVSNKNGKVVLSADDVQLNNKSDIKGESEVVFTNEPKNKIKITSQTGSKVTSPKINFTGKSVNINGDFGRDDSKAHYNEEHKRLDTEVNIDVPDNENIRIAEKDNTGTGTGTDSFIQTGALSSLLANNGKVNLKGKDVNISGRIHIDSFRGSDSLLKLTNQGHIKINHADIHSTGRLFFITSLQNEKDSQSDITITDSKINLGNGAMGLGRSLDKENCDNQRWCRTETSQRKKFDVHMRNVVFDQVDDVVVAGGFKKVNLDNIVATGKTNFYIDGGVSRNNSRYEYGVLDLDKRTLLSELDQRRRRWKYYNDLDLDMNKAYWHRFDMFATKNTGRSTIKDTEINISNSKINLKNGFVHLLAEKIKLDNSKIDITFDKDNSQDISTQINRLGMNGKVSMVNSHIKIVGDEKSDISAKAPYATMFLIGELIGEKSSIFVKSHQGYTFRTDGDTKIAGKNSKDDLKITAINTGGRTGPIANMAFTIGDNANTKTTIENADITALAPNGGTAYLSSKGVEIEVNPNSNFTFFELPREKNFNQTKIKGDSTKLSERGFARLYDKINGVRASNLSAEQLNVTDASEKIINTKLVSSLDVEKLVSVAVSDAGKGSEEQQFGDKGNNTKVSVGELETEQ

[5] = target: T4, HxuA^Asp726Ala, cysteine-less (dm) variant (Haemophilus influenzae, UniProt P44602 22-905, Asp726Ala | Cys855 replaced by serine | Cys861 replaced by serine); assay: as above; details: both partners purified
T4 construct: source: E. coli BL21 with a pBAD24 derivative harbouring the hxuCBA operon; purified from the culture supernatant (same protocol as HxuA)
T4 sequence: T1 sequence with D726A

[6] = target: T5, cysteine-less variant of HxuA^Asp726Ala (Haemophilus influenzae, UniProt P44602 22-905, Asp726Ala | cysteine at position 855 replaced by serine | cysteine at position …); assay: ITC; haemopexin or its fragments (~100 μM) in the syringe, HxuA (~10 μM) in the cell; 20 mM Na-phosphate pH 7.0, 25 °C; single-site model; apparent Ka; details: both partners purified
T5 construct: HxuA of Haemophilus influenzae, as m1 with Asp726Ala; also called dm variant of HxuA^Asp726Ala; source: E. coli, purified from the supernatant (same protocol as HxuA)
T5 sequence: T1 sequence with D726A

## rabbit haem-haemopexin (from UniProt P20058 26-460) (natural protein)
[1]
  Ka: 1.7e+08 M⁻¹
  dH: -13 kcal/mol
  stoichiometry N: 1

B1: N-terminal domain of rabbit haemopexin (domain or fragment)
chain: VPLTSAHGNVTEGESGTKPEADVIEQCSDGWSFDATTLDDNGTMLFFKDEFVWKSHRGIRELISERWKNFIGPVDAAFRHGHTSVYLIKGDKVWVYTSEKNEKVYPKSLQDEFPGIPFPLDAAVECHRGECQDEGILFFQGNRKWFWDLTTGTKKERSWPAVGNCTSALRWLGRYYCFQGNQFLRFNPVSGEVPPGYPLDVRDYFLSCPGRGHR
notes: haemopexin, rabbit, N-terminal fragment; The results call the domain residues 1-208; the fragment itself ends at Arg214; also called NtHpx; NterHpx; source: trypsin digestion of haemopexin purified from rabbit serum; purified (mono S, SEC)
[2]
  Ka: 7.6e+07 M⁻¹
  stoichiometry N: 0.88

B2: N-terminal domain of rabbit haemopexin (domain or fragment)
chain: B1 chain
notes: haemopexin, rabbit, N-terminal tryptic fragment: cleaved in the linker after Arg 214; also called NtHpx; NterHpx; source: trypsin digestion of haemopexin purified from rabbit serum; purified (mono S, SEC)
[3]
  dH: -48.5 kcal/mol
  stoichiometry N: ~1

B3: rabbit haemopexin (haem-free) (natural protein)
chain: VPLTSAHGNVTEGESGTKPEADVIEQCSDGWSFDATTLDDNGTMLFFKDEFVWKSHRGIRELISERWKNFIGPVDAAFRHGHTSVYLIKGDKVWVYTSEKNEKVYPKSLQDEFPGIPFPLDAAVECHRGECQDEGILFFQGNRKWFWDLTTGTKKERSWPAVGNCTSALRWLGRYYCFQGNQFLRFNPVSGEVPPGYPLDVRDYFLSCPGRGHRSSHRNSTQHGHESTRCDPDLVLSAMVSDNHGATYVFSGSHYWRLDTNRDGWHSWPIAHQWPQGPSTVDAAFSWEDKLYLIQDTKVYVFLTKGGYTLVNGYPKRLEKELGSPPVISLEAVDAAFVCPGSSRLHIMAGRRLWWLDLKSGAQATWTELPWPHEKVDGALCMEKPLGPNSCSTSGPNLYLIHGPNLYCYRHVDKLNAAKNLPQPQRVSRLLGCTH
notes: Glycoprotein from serum; also called Hpx; hemopexin; source: purified from rabbit serum (Biosera)
[2]
  Ka: > 1e+09 M⁻¹
  stoichiometry N: 0.8
[4]
  Ka: > 1e+09 M⁻¹
  stoichiometry N: 1.07
[5]
  Ka: > 1e+09 M⁻¹
  stoichiometry N: 0.68

B4: rabbit haem-haemopexin (natural protein)
chain: B3 chain
modifications: haem bound
notes: Same chain as Dm4, with haem; also called He-Hpx; HeHpx; source: purified from rabbit serum (Biosera), haem-loaded
[2]
  stoichiometry N: 0.96
[4]
  stoichiometry N: 0.89
[5]
  stoichiometry N: 1.06

B5: rabbit haem-haemopexin (natural protein)
chain: B3 chain
notes: also called He-Hpx; source: purified from rabbit serum (Biosera), haem-loaded
[6]
  Ka: 2.9e+06 M⁻¹
  dH: -12.8 kcal/mol
[3]
  Ka: > 1e+09 M⁻¹
  dH: -39.8 kcal/mol

B6: rabbit haemopexin (haem-free) (natural protein)
chain: B3 chain
notes: haemopexin, rabbit, serum glycoprotein, called full-length; two MMP domains (residues 1-208 and 228-435) joined by a linker; Glycoprotein from serum; also called Hpx; full-length haemopexin; source: purified from rabbit serum (Biosera): perchloric acid, PEG 3400, S-sepharose, mono Q, SEC
[3]
  dH: -52.7 kcal/mol
